Test results reported in the DeepSol protein solubility set.

assay: soluble on expression in E. coli; label from the status in PepcDB or PDB records

| Sequence | soluble on expression in E. coli |
| --- | --- |
| MIKIEINGIDEIIAKLNLIANKTENKTDLMRNIAGTMESAVQTNFEVGGRPKWLGIKHRKGVPLVDSENLMDSITSAYDNDTAFVGTNEEYAAIHQFGGMAGRGCKVKIEARPFLTLTEQDKSDILEEITDYWQRLLQ | not soluble |
| MCLAIPMQIESIDGFTARCAAKGVWRDVSLFMMQDAPPEVGDFVMVHVGYAIQKVTEADARSAWELLDQILEENGA | not soluble |
| MGSDKIHHHHHHMYRILVINPGSSSTKVAVFEDEKKIAEKNVSHSVEELKKFKRSMDQEPLRRKAVEDFIDEVGYRIEDFSAIAARGGVLEPVPGGTYVVNEYMVDYLINRSPVDHVSNLAAVIGYKLGKPHGIPCFVVDPVSVDEMCDEARFSGIPEIERKSYSHALNIKAVLRKVSREMGKTPEEVKIVVAHLGSGISVCACKNGKIIDVNNANDEGPFSIERTGELPVGDVVKTAYSSKHSAAELKEEFTRKGGLLAYLGTKNLKKALDSMETSRKAKLVVEAMAYQIAKEIGGMCAVLGEKPDAIVITGGMAHEIRFVRMITDYIEKFGKVEVIPGELEMEALALGVLRVLRGEEKAMDYRSVVE | not soluble |
| MSLDSSISDEDTVTVRTAKQVALVVEGQIQNVTTTAVSVEDLLQEVGGITGADAVDADLSETIPESGLEHHHHHH | not soluble |
| MGSDKIHHHHHHMIILVGGEKGGSGKSCLAQNIAVFLTVECGASVIMVDCDPQRTTSDWIQARNNNGTLASINCVQLYGKIRNDLLSLEQHYDYVIVDCGGQDNLALRATMSVASHVLMPLRPKRRDLKTVSHMDDIVATCMMINPKMRASFVITQCPSLPNQANRIFEAKEVCKTYDINVLDAITYSRNIYDDSEESGLSVMETQPKGKAAEEIRSIACEMLQASSATEIRNRLAEKQMDKLRGNYGSGRSQEKLYAV | not soluble |
| MELAAGSFSEEQFWEACAELQQPALAGADWQLLVETSGISIYRLLDKKTGLYEYKVFGVLEDCSPTLLADIYMDSDYRKQWDQYVKELYEQECNGETVVYWEVKYPFPMSNRDYVYLRQRRDLDMEGRKIHVILARSTSMPQLGERSGVIRVKQYKQSLAIESDGKKGSKVFMYYFDNPGGQIPSWLINWAAKNGVPNFLKDMARACQNYLKKT | soluble |
| MKVFGISGSPRLQGTHFAVNYALNYLKEKGAEVRYFSVSRKKINFCLHCDYCIKKKEGCIHKDDMEEVYENLIWADGVIIGTPVYQGNVTGQLKTLMDRCRAILAKNPKVLRGRVGMAIAVGGDRNGGQEIALRTIHDFFIINEMIPVGGGSFGANLGATFWSKDRGKKGVEEDEEGLRVLRKTLNRFYEVLKEKRGLLEHHHHHH | not soluble |
| MSLSEIKRKFDAVSGKYDEQRRKFIPCFDDFYGVSVSIASVDTENPDILDLGAGTGLLSAFLMEKYPEATFTLVDMSEKMLEIAKNRFRGNLKVKYIEADYSKYDFEEKYDMVVSALSIHHLEDEDKKELYKRSYSILKESGIFINADLVHGETAFIENLNKTIWRQYVENSGLTEEEIAAGYERSKLDKDIEMNQQLNWLKEAGFRDVSCIYKYYQFAVMFGRKTEGHHHHHH | soluble |
| MKNEDGIINILLMGTDARPNEDSSRSDAMMILTIDNKHNDIKLTSLARDSYVDIPGHGKQKLTHAYAYGQADLLIQTIEENFNIDIQNYACVNFESFMYIIDAIGGVEVTVEKGEIRELNKFIPETYKWNKSDDKGSIQYIRNSGKQTLNGYQALSFARIRHNDTAFARDGRQRQIIQAIIKKTETLPVTKYPGLLDAVLPYVKTNMKPNAILSLGAQVLKMGDLNIKQFEFPIDDEIHSTGGIYGKAGWVLRFDPDTLDILHDFIFNDIEFKQLEHHHHHH | soluble |
| MSDEESFVILGSSPCSSLMPDSSLRSDVCGNAQEAKETVASTSTQPPTVNCIPVSITASQQQHKSLDSGSSQQQSLATSFIMGEIQSDVLKNSVYSQFPSLCSLQGSAEEVVKLQNMMTEYLALKSQPNHAELPQPDSTMAPGSRRPRTPVQGACERVPSANRDPSRGKPRAEEGPRDENRADLEHHHHHH | not soluble |
